According to patent US5847088A, “Antibodies specific for platelet-activating factor acetylhydrolase” (ICOS Corporation, priority 1995, dated 1998):
Changes are numbered by the printed parent chain. Names and notes keep the numbering of the source.

B1: S108A: PAF-AH analog with single amino acid substitution, expressed in E. coli (protein)
chain: MVPPKLHVLFCLCGCLAVVYPFDWQYINPVAHMKSSAWVNKIQVLMAAASFGQTKIPRGNGPYSVGCTDLMFDHTNKGTFLRLYYPSQDNDRLDTLWIPNKEYFWGLAKFLGTHWLMGNILRLLFGSMTTPANWNSPLRPGEKYPLVVFSHGLGAFRTLYSAIGIDLASHGFIVAAVEHRDRSASATYYFKDQSAAEIGDKSWLYLRTLKQEEETHIRNEQVRQRAKECSQALSLILDIDHGKPVKNALDLKFDMEQLKDSIDREKIAVIGHSFGGATVIQTLSEDQRFRCGIALDAWMFPLGDEVYSRIPQPLFFINSEYFQYPANIIKMKKCYSPDKERKMITIRGSVHQNFADFTFATGKIIGHMLKLKGDIDSNVAIDLSNKASLAFLQKHLGLHKDFDQWDCLIEGDDENLIPGTNINTTNQHIMLQNSSGIEKYN
B2: D286N: PAF-AH analog with single amino acid substitution (protein)
chain: B1 chain with A108S, D286N
B3: H351A: PAF-AH analog, His351 changed to alanine (protein)
chain: B1 chain with A108S, H351A
B4: D296A: PAF-AH analog, Asp296 changed to alanine (protein)
chain: B1 chain with A108S, D296A
B5: V279F: PAF-AH with phenylalanine for valine at position 279, mutation of PAF-AH deficient patients (protein)
chain: B1 chain with A108S, V279F
B6: C229S: PAF-AH analog, Cys229 mutated to serine (protein)
chain: B1 chain with A108S, C229S
B7: D338A: PAF-AH analog with single amino acid substitution (protein)
chain: B1 chain with A108S, D338A
B8: C67S: PAF-AH analog, cysteine mutated to serine (protein)
chain: B1 chain with C67S, A108S
B9: C291S: PAF-AH analog, Cys291 mutated to serine (protein)
chain: B1 chain with A108S, C291S
B10: C407S: PAF-AH analog, cysteine mutated to serine (protein)
chain: B1 chain with A108S, C407S
B11: D286A: PAF-AH analog with single amino acid substitution (protein)
chain: B1 chain with A108S, D286A
B12: C334S: PAF-AH analog, cysteine mutated to serine (protein)
chain: B1 chain with A108S, C334S
B13: D304A: PAF-AH analog with single amino acid substitution (protein)
chain: B1 chain with A108S, D304A
B14: S273A: PAF-AH analog, Ser273 changed to alanine (protein)
chain: B1 chain with A108S, S273A
B15: Wild type: wild type human PAF-AH expressed in E. coli, control of mutation series (protein, UniProt Q13093 22-441, looked up)
Platelet-activating factor …: FDWQYINPVAHMKSSAWVNKIQVLMAAASFGQTKIPRGNGPYSVGCTDLMFDHTNKGTFLRLYYPSQDNDRLDTLWIPNKEYFWGLSKFLGTHWLMGNILRLLFGSMTTPANWNSPLRPGEKYPLVVFSHGLGAFRTLYSAIGIDLASHGFIVAAVEHRDRSASATYYFKDQSAAEIGDKSWLYLRTLKQEEETHIRNEQVRQRAKECSQALSLILDIDHGKPVKNALDLKFDMEQLKDSIDREKIAVIGHSFGGATVIQTLSEDQRFRCGIALDAWMFPLGDEVYSRIPQPLFFINSEYFQYPANIIKMKKCYSPDKERKMITIRGSVHQNFADFTFATGKIIGHMLKLKGDIDSNVAIDLSNKASLAFLQKHLGLHKDFDQWDCLIEGDDENLIPGTNINTTNQHIMLQNSSGIEKYN

Assay: PAF-AH activity of PAF-AH products expressed in E. coli (hydrolysis of 3H-acetate from [acetyl-3H] PAF)
Format: biochemical
Conditions: for PAF-AH activity: amino acid substitution products expressed in E. coli

| Molecule | PAF-AH activity | PAF-AH activity of mutant expression construct (E. coli, control construct lacking the mutation fully active) |
| --- | --- | --- |
| B1 | ++++ (wild type PAF-AH activity of about 40-60 U/ml/OD600) | – |
| B2 | ++ (about 10-20 U/ml/OD600 activity) | – |
| B3 | - (<1 U/ml/OD600 activity) | – |
| B4 | - (<1 U/ml/OD600 activity) | – |
| B5 | – | no PAF-AH activity |
| B6 | + (1-10 U/ml/OD600 activity) | – |
| B7 | ++++ (wild type PAF-AH activity of about 40-60 U/ml/OD600) | – |
| B8 | +++ (about 20-40 U/ml/OD600 activity) | – |
| B9 | + (1-10 U/ml/OD600 activity) | – |
| B10 | +++ (about 20-40 U/ml/OD600 activity) | – |
| B11 | - (<1 U/ml/OD600 activity) | – |
| B12 | ++++ (wild type PAF-AH activity of about 40-60 U/ml/OD600) | – |
| B13 | ++++ (wild type PAF-AH activity of about 40-60 U/ml/OD600) | – |
| B14 | - (<1 U/ml/OD600 activity) | – |
| B15 | ++++ (wild type PAF-AH activity of about 40-60 U/ml/OD600) | – |
